Changes are numbered by the printed parent chain. Numbers in names are those of the source.
B1: R.PabI(Y68F-K154A) mutant (enzyme, Pyrococcus abyssi, UniProt Q9V2B6 8-226, looked up)
chain: EASVSFENGKIVVRLPITRPTSKIRVKKIENGVGIPVSTRKKSFPSDENLRDYYIEWQISFARDGKYDYELSRMVRLAHEHGILTYNDIYELLKFADDVKSYLEDKGIRRESTNEELYGFNIYEDVYPVAKKELPSGEFIGIVLKHAQRAVGYQSMVYVCIPLTNVEPSLAGRVARRNEVVKYEVPVDLMKELLKAFIIASETHKNDIVKFLRSIIGTS
notes: R.PabI, restriction DNA glycosylase of Pyrococcus abyssi, residues 8-226, cloned into pET26b; Mr = 25 287 printed; the vector pET26b can add a C-terminal His tag, but the printed Mr fits residues 8-226 without a tag; also called Y68F-K154A double mutant of R.PabI; source: E. coli Rosetta(DE3)pLysS, purified (heat 80°C, TOYOPEARL AF-Heparin, Mono S)
B2: R.PabI(K154A-P27G-T28G) mutant (enzyme, Pyrococcus abyssi, UniProt Q9V2B6 8-226, looked up)
chain: B1 chain with P20G, T21G, F61Y
notes: R.PabI, restriction DNA glycosylase of Pyrococcus abyssi, residues 8-226, cloned into pET26b; Mr = 25 219 printed; Called a dimer in the methods (loaded '2 μM as a dimer'); source: E. coli Rosetta(DE3)pLysS, purified (heat 80°C, TOYOPEARL AF-Heparin, Mono S)
B3: R.PabI(K154A) mutant (enzyme, Pyrococcus abyssi, UniProt Q9V2B6 8-226, looked up)
chain: B1 chain with F61Y
notes: R.PabI, restriction DNA glycosylase of Pyrococcus abyssi, residues 8-226, cloned into pET26b; Mr = 25 303 printed; Called a dimer in the methods (loaded '2 μM as a dimer'); PDB 3WAZ (cited) holds R.PabI(K154A) with product dsDNA; also called K154A mutant of R.PabI; source: E. coli Rosetta(DE3)pLysS, purified (heat 80°C, TOYOPEARL AF-Heparin, Mono S)
B4: R.PabI(Y68F) mutant (enzyme, Pyrococcus abyssi, UniProt Q9V2B6 8-226, looked up)
chain: B1 chain with A147K
notes: R.PabI, restriction DNA glycosylase of Pyrococcus abyssi, residues 8-226, cloned into pET26b; Mr = 25 344 printed; Called a dimer in the methods (loaded '2 μM as a dimer'); source: E. coli Rosetta(DE3)pLysS, purified (heat 80°C, TOYOPEARL AF-Heparin, Mono S)
B5: R.PabI(Y68F-P27G) mutant (enzyme, Pyrococcus abyssi, UniProt Q9V2B6 8-226, looked up)
chain: B1 chain with P20G, A147K
notes: R.PabI, restriction DNA glycosylase of Pyrococcus abyssi, residues 8-226, cloned into pET26b; Mr = 25 304 printed; Called a dimer in the methods (loaded '2 μM as a dimer'); also called Y68F-P27G double mutant; source: E. coli Rosetta(DE3)pLysS, purified (heat 80°C, TOYOPEARL AF-Heparin, Mono S)
B6: R.PabI(Y68F-P27G-T28G) mutant (enzyme, Pyrococcus abyssi, UniProt Q9V2B6 8-226, looked up)
chain: B1 chain with P20G, T21G, A147K
notes: R.PabI, restriction DNA glycosylase of Pyrococcus abyssi, residues 8-226, cloned into pET26b; Mr = 25 260 printed; Called a dimer in the methods (loaded '2 μM as a dimer'); also called Y68F-P27G-T28G triple mutant; source: E. coli Rosetta(DE3)pLysS, purified (heat 80°C, TOYOPEARL AF-Heparin, Mono S)

Biological target: the molecule itself
Assay: SEC; Superdex 200 HR 10/30; 2 μM as a dimer loaded; 10 mM MES pH 6.0, 500 mM NaCl; oligomeric state estimated against standard proteins

Row | Protein | stoichiometry N | binding result
1 | B1 | 2 | –
2 | B2 | – | binds
3 | B3 | – | binds
4 | B4 | – | binds
5 | B5 | – | binds
6 | B6 | – | binds

From PMC7229829, “Distortion of double-stranded DNA structure by the binding of the restriction DNA glycosylase R.PabI” (Nucleic Acids Research, 2020)
